Test results as given in patent US20210054353, “NOVEL RNA-PROGRAMMABLE ENDONUCLEASE SYSTEMS AND USES THEREOF” (CRISPR THERAPEUTICS AG, published 2021).

Legend:
Gib11 sRGN = biological target: T1, Gib11 sRGN (synthetic (Staphylococcus Cas9 chimera)); assay: FP; cleavage; 5 mM MgCl2, 37 C; PAM GGGG on substrate; mismatch values only in figure
T1 chain: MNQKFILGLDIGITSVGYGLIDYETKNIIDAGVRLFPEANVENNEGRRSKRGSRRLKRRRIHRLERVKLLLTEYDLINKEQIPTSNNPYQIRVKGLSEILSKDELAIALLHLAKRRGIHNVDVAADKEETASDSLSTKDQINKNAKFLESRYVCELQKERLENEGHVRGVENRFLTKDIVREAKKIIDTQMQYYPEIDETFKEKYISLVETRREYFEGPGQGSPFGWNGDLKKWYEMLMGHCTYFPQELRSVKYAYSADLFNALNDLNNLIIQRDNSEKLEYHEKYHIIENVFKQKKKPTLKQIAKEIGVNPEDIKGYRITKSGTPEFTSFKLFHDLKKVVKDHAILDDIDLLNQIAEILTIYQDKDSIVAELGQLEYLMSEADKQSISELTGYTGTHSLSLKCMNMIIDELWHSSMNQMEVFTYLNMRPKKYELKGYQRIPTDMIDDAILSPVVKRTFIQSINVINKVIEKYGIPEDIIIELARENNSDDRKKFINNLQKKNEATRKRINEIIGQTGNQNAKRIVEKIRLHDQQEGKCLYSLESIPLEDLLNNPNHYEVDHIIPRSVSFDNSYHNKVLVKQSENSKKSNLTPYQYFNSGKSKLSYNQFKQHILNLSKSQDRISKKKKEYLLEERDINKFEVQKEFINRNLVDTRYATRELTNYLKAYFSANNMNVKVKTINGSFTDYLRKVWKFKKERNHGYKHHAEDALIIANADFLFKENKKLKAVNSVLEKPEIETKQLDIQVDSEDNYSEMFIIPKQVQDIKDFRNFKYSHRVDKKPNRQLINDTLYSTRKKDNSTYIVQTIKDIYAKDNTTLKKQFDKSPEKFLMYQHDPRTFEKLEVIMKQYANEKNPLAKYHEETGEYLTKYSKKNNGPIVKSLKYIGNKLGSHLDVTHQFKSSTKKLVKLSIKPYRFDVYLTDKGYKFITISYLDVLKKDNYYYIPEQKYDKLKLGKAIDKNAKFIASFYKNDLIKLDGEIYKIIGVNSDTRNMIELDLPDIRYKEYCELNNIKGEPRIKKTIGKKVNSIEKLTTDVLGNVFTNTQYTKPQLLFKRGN
Protocol: (§1) Oligonucleotide duplexes were prepared in 10 mM Tris (pH 7.8) 50 mM NaCl as 10 μM solutions (from 100 μM stocks) and annealed at 95° C. for 5 minutes then slowly cooled down in thermo cycler (6° C. per minute). The stocks were subsequently diluted in 10 mM Tris (pH 7.8), 50 mM NaCl, and 0.05% Pluronic. 20 μl of each oligonucleotide (20 nM) was immobilized on streptavidin coated plates, washed twice after 10 minutes and then incubated with a 20 μL sample for a kinetics of 60 minutes (excitation wavelength: 635 nm; emission wavelength: 670 nm). Prior to the cleavage the reaction RNP was formed. RNP was assembled by mixing 12.03 μl of the respective sRGN protein (1.21 μg/μl) in 3200 μl 1×PBS+5 mM MgCl₂ with and without sgRNA (SEQ ID NO: 128; 60 nM final concentration), RNPs were incubated 5 min at 37° C. prior to the reaction. 20 μl RNP was added to each well and the polarization was measured for 60 minutes at 37° C.
(§2) The cleavage kinetics were analyzed by calculating the initial slope of the oligonucleotide cleavage reaction. The slopes were calculated for each of the 61 substrates and normalized to the value of the on-target substrate (defined as 1). The normalized cleavage values for all 60 off-target substrates where then grouped according to their position. […]

E2 sRGN = biological target: T2, E2 sRGN (synthetic (Staphylococcus Cas9 chimera)); assay: FP; cleavage; specificity profile comparable to SluCas9
T2 chain: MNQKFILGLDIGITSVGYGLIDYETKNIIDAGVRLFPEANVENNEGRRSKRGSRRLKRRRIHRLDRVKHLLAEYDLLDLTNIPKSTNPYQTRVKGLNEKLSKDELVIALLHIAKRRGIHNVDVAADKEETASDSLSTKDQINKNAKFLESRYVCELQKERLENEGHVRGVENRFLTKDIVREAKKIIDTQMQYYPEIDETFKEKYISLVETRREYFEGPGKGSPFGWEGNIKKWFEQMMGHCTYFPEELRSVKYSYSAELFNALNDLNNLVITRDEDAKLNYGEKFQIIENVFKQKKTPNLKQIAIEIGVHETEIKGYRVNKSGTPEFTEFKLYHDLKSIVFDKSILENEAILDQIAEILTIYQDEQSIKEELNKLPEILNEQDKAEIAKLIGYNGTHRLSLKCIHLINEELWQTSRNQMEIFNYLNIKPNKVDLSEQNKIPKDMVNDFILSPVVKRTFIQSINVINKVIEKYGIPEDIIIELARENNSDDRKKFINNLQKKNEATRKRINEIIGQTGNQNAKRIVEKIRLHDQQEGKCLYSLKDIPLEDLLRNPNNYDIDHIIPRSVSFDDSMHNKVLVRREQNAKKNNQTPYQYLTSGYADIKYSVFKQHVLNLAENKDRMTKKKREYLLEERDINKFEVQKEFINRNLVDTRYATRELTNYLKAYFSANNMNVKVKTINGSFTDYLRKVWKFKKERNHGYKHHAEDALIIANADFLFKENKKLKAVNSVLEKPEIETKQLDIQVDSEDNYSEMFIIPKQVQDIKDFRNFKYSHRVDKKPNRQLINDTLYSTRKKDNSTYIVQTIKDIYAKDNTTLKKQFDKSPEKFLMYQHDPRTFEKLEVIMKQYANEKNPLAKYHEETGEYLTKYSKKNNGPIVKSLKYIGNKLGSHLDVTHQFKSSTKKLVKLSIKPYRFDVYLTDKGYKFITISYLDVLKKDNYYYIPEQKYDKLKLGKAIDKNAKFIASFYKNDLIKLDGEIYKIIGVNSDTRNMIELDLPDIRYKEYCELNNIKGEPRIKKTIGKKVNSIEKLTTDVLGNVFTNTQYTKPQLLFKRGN
Protocol: as §1, §2

F8 sRGN = biological target: T3, F8 sRGN (synthetic (Staphylococcus Cas9 chimera)); assay: FP; cleavage; 5 mM MgCl2, 37 C
T3 chain: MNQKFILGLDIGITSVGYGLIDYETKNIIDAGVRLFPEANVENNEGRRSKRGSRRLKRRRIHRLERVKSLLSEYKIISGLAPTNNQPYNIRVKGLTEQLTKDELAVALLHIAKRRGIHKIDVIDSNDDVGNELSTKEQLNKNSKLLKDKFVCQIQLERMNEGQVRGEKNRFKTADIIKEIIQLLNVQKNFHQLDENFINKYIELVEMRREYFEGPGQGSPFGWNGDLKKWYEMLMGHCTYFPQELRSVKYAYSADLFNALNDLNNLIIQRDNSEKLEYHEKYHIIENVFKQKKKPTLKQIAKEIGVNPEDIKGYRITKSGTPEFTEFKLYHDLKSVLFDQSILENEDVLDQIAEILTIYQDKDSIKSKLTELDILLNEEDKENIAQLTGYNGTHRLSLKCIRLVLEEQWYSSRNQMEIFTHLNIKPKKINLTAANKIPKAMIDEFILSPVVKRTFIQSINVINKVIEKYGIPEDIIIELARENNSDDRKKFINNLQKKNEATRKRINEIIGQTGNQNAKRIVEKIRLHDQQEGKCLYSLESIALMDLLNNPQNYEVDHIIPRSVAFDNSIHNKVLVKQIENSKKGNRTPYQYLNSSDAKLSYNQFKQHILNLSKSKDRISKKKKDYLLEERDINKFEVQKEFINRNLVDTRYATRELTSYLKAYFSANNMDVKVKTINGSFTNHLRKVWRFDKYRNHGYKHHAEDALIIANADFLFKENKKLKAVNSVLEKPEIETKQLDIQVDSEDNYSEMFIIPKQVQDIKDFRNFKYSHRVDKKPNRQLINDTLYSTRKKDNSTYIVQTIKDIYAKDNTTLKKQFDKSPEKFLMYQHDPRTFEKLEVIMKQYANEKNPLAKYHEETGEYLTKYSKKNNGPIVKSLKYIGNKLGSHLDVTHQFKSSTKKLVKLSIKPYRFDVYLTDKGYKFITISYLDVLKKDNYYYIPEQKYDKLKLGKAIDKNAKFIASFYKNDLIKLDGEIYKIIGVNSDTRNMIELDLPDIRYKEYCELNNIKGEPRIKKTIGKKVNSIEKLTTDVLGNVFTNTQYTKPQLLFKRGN
Protocol: as §1, §2

Gib11Spa-1 sRGN = biological target: T4, Gib11Spa-1 sRGN (synthetic (Staphylococcus Cas9 chimera)); assay: FP; cleavage; 5 mM MgCl2, 37 C; PAM GGGG on substrate
T4 chain: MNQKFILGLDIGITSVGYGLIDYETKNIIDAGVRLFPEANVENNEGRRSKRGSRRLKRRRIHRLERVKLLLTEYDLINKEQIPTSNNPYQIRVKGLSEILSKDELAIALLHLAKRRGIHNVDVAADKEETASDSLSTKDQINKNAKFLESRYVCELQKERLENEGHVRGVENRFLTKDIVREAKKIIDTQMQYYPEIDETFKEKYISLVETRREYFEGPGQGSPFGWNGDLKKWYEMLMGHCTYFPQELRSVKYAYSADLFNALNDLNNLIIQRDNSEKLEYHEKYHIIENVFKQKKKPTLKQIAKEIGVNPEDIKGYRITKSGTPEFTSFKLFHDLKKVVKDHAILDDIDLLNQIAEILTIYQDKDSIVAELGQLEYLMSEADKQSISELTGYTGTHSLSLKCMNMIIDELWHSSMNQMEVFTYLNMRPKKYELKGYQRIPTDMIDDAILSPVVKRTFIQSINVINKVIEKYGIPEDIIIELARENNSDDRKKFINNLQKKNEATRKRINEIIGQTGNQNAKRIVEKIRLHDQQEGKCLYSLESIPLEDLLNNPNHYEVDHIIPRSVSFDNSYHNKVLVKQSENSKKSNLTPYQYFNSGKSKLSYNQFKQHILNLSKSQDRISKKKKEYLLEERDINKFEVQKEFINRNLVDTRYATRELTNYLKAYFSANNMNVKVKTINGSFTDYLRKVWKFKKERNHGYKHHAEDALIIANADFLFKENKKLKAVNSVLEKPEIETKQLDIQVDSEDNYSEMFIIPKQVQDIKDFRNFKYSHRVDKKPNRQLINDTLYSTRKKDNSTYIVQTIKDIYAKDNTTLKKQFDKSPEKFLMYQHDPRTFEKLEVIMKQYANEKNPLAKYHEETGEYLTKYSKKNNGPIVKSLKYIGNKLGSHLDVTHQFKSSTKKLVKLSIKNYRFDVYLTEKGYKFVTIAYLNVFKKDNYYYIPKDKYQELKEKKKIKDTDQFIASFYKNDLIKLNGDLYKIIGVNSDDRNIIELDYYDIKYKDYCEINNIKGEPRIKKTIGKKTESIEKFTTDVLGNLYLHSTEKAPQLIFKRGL
Protocol: as §1, §2

Gib11Spa-3 sRGN = biological target: T5, Gib11Spa-3 sRGN (synthetic (Staphylococcus Cas9 chimera)); assay: as above
T5 chain: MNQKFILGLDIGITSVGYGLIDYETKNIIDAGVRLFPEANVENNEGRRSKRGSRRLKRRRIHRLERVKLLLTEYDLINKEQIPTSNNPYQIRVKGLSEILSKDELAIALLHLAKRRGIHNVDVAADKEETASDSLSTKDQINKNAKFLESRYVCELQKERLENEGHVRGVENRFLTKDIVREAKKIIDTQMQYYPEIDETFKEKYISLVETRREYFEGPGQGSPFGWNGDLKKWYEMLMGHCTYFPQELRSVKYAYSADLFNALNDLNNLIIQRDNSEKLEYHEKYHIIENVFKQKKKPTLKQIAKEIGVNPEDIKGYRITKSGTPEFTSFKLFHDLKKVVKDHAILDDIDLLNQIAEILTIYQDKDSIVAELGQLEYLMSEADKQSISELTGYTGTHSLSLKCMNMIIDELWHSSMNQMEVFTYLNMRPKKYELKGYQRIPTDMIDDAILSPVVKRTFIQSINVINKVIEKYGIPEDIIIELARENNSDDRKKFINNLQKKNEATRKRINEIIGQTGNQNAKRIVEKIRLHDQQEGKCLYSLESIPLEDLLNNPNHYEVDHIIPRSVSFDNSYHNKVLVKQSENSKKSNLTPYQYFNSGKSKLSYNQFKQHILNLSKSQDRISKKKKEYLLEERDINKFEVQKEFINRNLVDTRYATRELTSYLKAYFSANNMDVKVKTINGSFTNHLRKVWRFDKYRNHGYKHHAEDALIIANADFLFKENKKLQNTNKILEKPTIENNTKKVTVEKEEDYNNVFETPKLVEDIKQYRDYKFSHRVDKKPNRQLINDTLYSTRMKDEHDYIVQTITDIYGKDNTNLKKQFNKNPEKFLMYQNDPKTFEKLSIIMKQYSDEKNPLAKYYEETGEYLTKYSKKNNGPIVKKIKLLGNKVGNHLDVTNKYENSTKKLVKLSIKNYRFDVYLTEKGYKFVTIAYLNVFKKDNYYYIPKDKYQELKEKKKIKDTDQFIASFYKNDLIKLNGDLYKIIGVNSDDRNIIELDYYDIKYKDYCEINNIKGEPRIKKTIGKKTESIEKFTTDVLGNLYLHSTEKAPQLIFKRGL
Protocol: as §1, §2

Measured: binding result

B1: sgRNA_Ex6 ; R01-1 on-target duplex (ssRNA ; dsDNA)
RNA: GGUGAACGUGGAUGAAGUUGGUUUUAGUACUCUGGAAACAGAAUCUACUGAAACAAGACAAUAUGUCGUGUUUAUCCCAUCAAUUUAUUGGUGGGAUUUUUUUCUAGCAUAACCCCUUGGGGCCUCUAAACGGGUCUUGAGGGGUUUUUU
DNA 1: GGTGAACGTGGATGAAGTTGTGGGGTAC
DNA 2: GCGGTACCCCACAACTTCATCCACGTTCACCGG
binds: Gib11 sRGN | E2 sRGN | F8 sRGN | Gib11Spa-1 sRGN | Gib11Spa-3 sRGN
